Results as given in the supplement of paper PMC9112550, “Optimization of the antimicrobial peptide Bac7 by deep mutational scanning” (BMC Biology, 2022).

Each sequence was assayed on Escherichia coli TOP10 (assay: shrunken log2 fold change of peptide-encoding DNA abundance (4.5 h post-induction vs induction); higher = less antimicrobial activity (less host growth inhibition)). Details: time post-induction: 4.5 h; library: site-saturation at positions 5, 18, 19, 20.
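Also: peptides expressed intracellularly from a pBAD plasmid library in pooled LB shake-flask culture, induced with 0.3% L-arabinose, DNA abundance read by NGS, three biological replicates, DESeq2 with apeglm shrinkage.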

| Sequence | shrunken log2 fold change |
| --- | --- |
| RRIRARPPRLPRPRPRPTTQPRP | 0.584 |
| RRIRARPPRLPRPRPRPTWYPRP | -0.00985 |
| RRIRARPPRLPRPRPRPTYAPRP | 0.2 |
| RRIRARPPRLPRPRPRPTYIPRP | -0.438 |
| RRIRARPPRLPRPRPRPTYPPRP | -0.0587 |
| RRIRARPPRLPRPRPRPTYVPRP | 0.504 |
| RRIRARPPRLPRPRPRPVACPRP | 0.284 |
| RRIRARPPRLPRPRPRPVAPPRP | 0.612 |
| RRIRARPPRLPRPRPRPVATPRP | 0.982 |
| RRIRARPPRLPRPRPRPVDCPRP | 0.26 |
| RRIRARPPRLPRPRPRPVDFPRP | 0.39 |
| RRIRARPPRLPRPRPRPVDVPRP | -0.113 |
| RRIRARPPRLPRPRPRPVDWPRP | 1.01 |
| RRIRARPPRLPRPRPRPVFFPRP | 0.448 |
| RRIRARPPRLPRPRPRPVFNPRP | -0.297 |
| RRIRARPPRLPRPRPRPVGQPRP | 0.225 |
| RRIRARPPRLPRPRPRPVHVPRP | 0.00822 |
| RRIRARPPRLPRPRPRPVINPRP | -0.383 |
| RRIRARPPRLPRPRPRPVLLPRP | 0.122 |
| RRIRARPPRLPRPRPRPVMQPRP | 0.305 |
| RRIRARPPRLPRPRPRPVPAPRP | 0.814 |
| RRIRARPPRLPRPRPRPVQKPRP | 0.198 |
| RRIRARPPRLPRPRPRPVRQPRP | 0.855 |
| RRIRARPPRLPRPRPRPVSAPRP | 0.455 |
| RRIRARPPRLPRPRPRPVSGPRP | 0.398 |

| Sequence | shrunken log2 fold change |
| --- | --- |
| RRIRARPPRLPRPRPRPVSLPRP | -0.0174 |
| RRIRARPPRLPRPRPRPVSWPRP | 0.813 |
| RRIRARPPRLPRPRPRPVTAPRP | 0.654 |
| RRIRARPPRLPRPRPRPVTYPRP | -0.265 |
| RRIRARPPRLPRPRPRPVVTPRP | 0.254 |
| RRIRARPPRLPRPRPRPVWEPRP | 0.228 |
| RRIRARPPRLPRPRPRPVWWPRP | 0.987 |
| RRIRARPPRLPRPRPRPVYWPRP | 0.141 |
| RRIRARPPRLPRPRPRPWAVPRP | 0.295 |
| RRIRARPPRLPRPRPRPWDCPRP | 0.0143 |
| RRIRARPPRLPRPRPRPWDKPRP | 0.0886 |
| RRIRARPPRLPRPRPRPWDNPRP | 0.0421 |
| RRIRARPPRLPRPRPRPWERPRP | 0.12 |
| RRIRARPPRLPRPRPRPWFIPRP | -0.502 |
| RRIRARPPRLPRPRPRPWICPRP | -0.0278 |
| RRIRARPPRLPRPRPRPWLLPRP | 0.156 |
| RRIRARPPRLPRPRPRPWLRPRP | 0.228 |
| RRIRARPPRLPRPRPRPWLTPRP | 0.0459 |
| RRIRARPPRLPRPRPRPWMAPRP | 0.0631 |
| RRIRARPPRLPRPRPRPWMMPRP | -0.248 |
| RRIRARPPRLPRPRPRPWNDPRP | -0.158 |
| RRIRARPPRLPRPRPRPWPEPRP | 0.245 |
| RRIRARPPRLPRPRPRPWPWPRP | 0.261 |
| RRIRARPPRLPRPRPRPWQIPRP | -0.0641 |
| RRIRARPPRLPRPRPRPWQNPRP | 0.05 |

| Sequence | shrunken log2 fold change |
| --- | --- |
| RRIRARPPRLPRPRPRPWRVPRP | 0.12 |
| RRIRARPPRLPRPRPRPWSCPRP | -0.045 |
| RRIRARPPRLPRPRPRPWSIPRP | -0.0906 |
| RRIRARPPRLPRPRPRPWSKPRP | -0.27 |
| RRIRARPPRLPRPRPRPWSVPRP | 0.0303 |
| RRIRARPPRLPRPRPRPWTEPRP | -0.181 |
| RRIRARPPRLPRPRPRPWTQPRP | 0.0723 |
| RRIRARPPRLPRPRPRPWTYPRP | 0.0209 |
| RRIRARPPRLPRPRPRPWVNPRP | -0.246 |
| RRIRARPPRLPRPRPRPWWMPRP | 0.0201 |
| RRIRARPPRLPRPRPRPWYGPRP | -0.634 |
| RRIRARPPRLPRPRPRPYACPRP | -0.217 |
| RRIRARPPRLPRPRPRPYAWPRP | -0.129 |
| RRIRARPPRLPRPRPRPYCWPRP | -0.258 |
| RRIRARPPRLPRPRPRPYDDPRP | 0.192 |
| RRIRARPPRLPRPRPRPYDWPRP | 0.0315 |
| RRIRARPPRLPRPRPRPYECPRP | -0.327 |
| RRIRARPPRLPRPRPRPYEHPRP | -0.25 |
| RRIRARPPRLPRPRPRPYESPRP | -0.103 |
| RRIRARPPRLPRPRPRPYGAPRP | -0.206 |
| RRIRARPPRLPRPRPRPYGEPRP | -0.168 |
| RRIRARPPRLPRPRPRPYHEPRP | -0.167 |
| RRIRARPPRLPRPRPRPYHNPRP | -1.16 |
| RRIRARPPRLPRPRPRPYHSPRP | -0.237 |
| RRIRARPPRLPRPRPRPYKKPRP | -0.0244 |
